Test results as given in US20190359693A1.
Where a chain is given by its changes, count along the chain named.

B1: SD1074 (VHH)
VHH: EVQLVESGGGLVQAGGSLRLSCAASRNFDAIGAMGWYRQAPGKQRELVAEITSDGSTNYTDSVKGRFTISRDNALRTMYLQMNALEPEDTAVYYCKADISIYGLTNFPYWGQGTQVTVSS
B2: SD1018 (VHH)
VHH: EVQLVESGGGLVQAGGSLRLSCAASGQTYHMGWFRQTPGNERESVAAVTWSGAVTRYADSVKGRFTISRDNAKNTVYLQMNSLVPEDTAIYYCAATRSMAPIIQLSPGSYDYWGPGTQVTVSS
B3: SD1027 (VHH)
VHH: EVQLVESGGGMVQAGGSLRLSCAASGGTFSLYHMGWFRQAPGEEREFVAAISGSGGNTYYADSVKGRFTISRDNNKNTVYLQMSSLEPEDTAVYFCAAMKWPGILRDANAYDYWGQGTQVTVSS
B4: SD1072 (VHH)
VHH: EVQLVESGGGLVEAGGSLRLSCAVSGRTFSMYATGWFRQAPGKEREFVAAINSSGDKTTYADSVEGRFTISRDIGTVYLQMNNLNPEDTAVYYCAAARTLAVVTIPGGYEYWGQGTQVTVSS
B5: SD1071 (VHH)
VHH: EVQLVESGGGLVQTGESLRLSCAFSGFTYSTYWMYWVRQGPEKGLKWVSSTNAAGTVTYYAANVRDRFTASKDNAKNTLYLQMNRLKPEDTGLYYCASKDGLIVAATLDDYDYRGQGTQVTVSS
B6: SD3014 (VHH)
VHH: EVQLVESGGGVVQPGGSLRLSCAASISIFDIYAMDWYRQAPGKQRELVAVSFRDGSTYYADSVKGRFTISRDNSKNTLYLQMNSLRAEDTAVYLCHVSLYRDPLGVAGGMGVYWGKGALVTVSS
B7: SD3015 (VHH)
VHH: B6 VHH with A49S
B8: SD3016 (VHH)
VHH: B6 VHH with A87P
B9: SD3031 (VHH)
VHH: B6 VHH with V11L, A24V, E46D, V50T, Y58N, S74A, R86K, A87P, M110V
B10: SD3018 (VHH)
VHH: B6 VHH with D35H
B11: SD3017 (VHH)
VHH: B6 VHH with D35H, V50T
B12: SD3089 (VHH)
VHH: B6 VHH with D35H, A49S, L94Y, M110L, K116Q, A118T
B13: SD3078 (VHH)
VHH: B6 VHH with A49S, L94Y, M110L, K116Q, A118T
B14: SD3080 (VHH)
VHH: B6 VHH with A87P, L94Y, M110L, K116Q, A118T
B15: SD3033 (VHH)
VHH: B6 VHH with V11L, A24V, E46D, V50T, Y58N, S74A, R86K, A87P, M110F
B16: SD3032 (VHH)
VHH: B6 VHH with V11L, A24V, E46D, V50T, Y58N, S74A, R86K, A87P, M110A
B17: SD3019 (VHH)
VHH: B6 VHH with D35H, A49S
B18: SD3020 (VHH)
VHH: B6 VHH with D35H, A87P
B19: SD1035 (VHH)
VHH: EVQLVESGGGLVQAGGTLRLSCAASGSAVSISRMAWYRQAPGKQRELVADIFSGGGTNYADSVKGRFTISRDNAKNTVDLQMNSLKPEDTAVYYCSARSAVAAIHWDQYDYWGQGTQVTVSS
B20: SD3023 (VHH)
VHH: EVQLLESGGGLVQAGGSLRLSCAASGRTYAMSWFRQAPGKEREFVSHINALGTRTYYADSVKGRFTISRDNSKNTLYLQMNSLRPEDTAVYYCTAQGQWRAAPVAVAAEYEFWGQGTQVTVSS
B21: SD3096 (VHH)
VHH: B20 VHH with A14P, S32G, S46A, L76V, Q118L
B22: SD3026 (VHH)
VHH: B20 VHH with A14P, H47A, P85A
B23: SD3028 (VHH)
VHH: B20 VHH with S46A
B24: SD3027 (VHH)
VHH: B20 VHH with H47A
B25: SD3025 (VHH)
VHH: B20 VHH with A14P, S46A, P85A
B26: SD3095 (VHH)
VHH: B20 VHH with A14P, S32G, S46A, Q118L
B27: SD3024 (VHH)
VHH: B20 VHH with A14P, P85A
B28: SD3098 (VHH)
VHH: B20 VHH with A14P, S32G, S46A, H47A, Q118L
B29: SD3094 (VHH)
VHH: B20 VHH with A14P, S32G, S46A, P85A, Q118L
B30: SD3067 (VHH)
VHH: EVQLVESGGGLVQPGGSLRLSCAASGRTLSIYSMGWFRQAPGKEREFVATIGWNSGRTFYPDSLKGRFTISRDNSKNTLYLQMNSLRAEDTAVYYCAAAKGPLRLSSQADYWGQGTLVTVSS
B31: SD3068 (VHH)
VHH: B30 VHH with A49S
B32: SD1047 (VHH)
VHH: EVQLVESGGGLVQAGGSLRISCAASGRTYAMAWFRQAPGKEREFVAHINALGTRTYYSDSVKDRFTISRDNAKNTEYLQMNSLKPEDTAVYYCVAGGQWRAAPVAAAESYDFWGQGTQVTVSS
B33: SD3044 (VHH)
VHH: B30 VHH with G35S, A49S, F59Y, P61A, L64V, S75A, K76R, L117Q
B34: SD3048 (VHH)
VHH: B30 VHH with P14A, G35S, A49S, F59Y, P61A, L64V, S75A, K76R, L117Q
B35: SD3047 (VHH)
VHH: B30 VHH with P14A, G35S, F59Y, P61A, L64V, L117Q
B36: SD3045 (VHH)
VHH: B30 VHH with P14A, G35S, A49S, T50A, F59Y, P61A, L64V, L117Q
B37: SD3046 (VHH)
VHH: B30 VHH with P14A, G35S, A49S, F59Y, P61A, L64V, L117Q

Target: HA of H3N2 A/Brisbane/10/2007 (influenza A virus)
Experiment: cell-based or functional assay

| Binder | VNA titer [nM] |
| --- | --- |
| B1 | > 1000 |
| B2 | > 1000 |
| B3 | > 1000 |
| B4 | > 1000 |
| B5 | > 1000 |

Target: hemagglutinin (HA) of influenza A/New Caledonia/20/99 (H1N1) (influenza A virus A/New Caledonia/20/99 (H1N1))
Experiment: cell-based or functional assay

| Binder | VNA IC50 [nM] |
| --- | --- |
| B6 | 3 |
| B7 | 3 |
| B8 | 3 |
| B9 | 37 |
| B10 | 6 |
| B11 | 4 |
| B12 | 3 |
| B13 | 8 |
| B14 | 5 |
| B15 | 51 |
| B16 | > 500 |
| B17 | 4 |
| B18 | 4 |

Target: HA of H1N1 A/New Caledonia/20/1999 (influenza A virus)
Experiment: cell-based or functional assay

| Binder | VNA titer [nM] |
| --- | --- |
| B1 | 113 |
| B2 | > 1000 |
| B3 | 862 |
| B4 | 78.5 |
| B5 | 1260 |
| B19 | 74.8 |

Target: hemagglutinin (HA) of influenza A/Brisbane/10/07 (H3N2) (influenza A virus A/Brisbane/10/07 (H3N2))
Experiment: cell-based or functional assay

| Binder | VNA IC50 [nM] |
| --- | --- |
| B9 | > 1000 |
| B12 | 1190 |
| B13 | 632 |
| B14 | 632 |
| B20 | 64 |
| B21 | 26 |
| B22 | 16 |
| B23 | 101 |
| B24 | 16 |
| B25 | 160 |
| B26 | 8 |
| B27 | 80 |
| B28 | 4 |
| B29 | 8 |
| B30 | 3 |
| B31 | 4 |

Target: hemagglutinin (HA) of influenza A/Vietnam/1194/04 (H5N1) (influenza A virus A/Vietnam/1194/04 (H5N1))
Experiment: cell-based or functional assay

| Binder | VNA IC50 [nM] |
| --- | --- |
| B6 | 11 |
| B7 | 6 |
| B8 | 8 |
| B9 | 51 |
| B10 | 8 |
| B11 | 11 |
| B12 | 20 |
| B13 | 20 |
| B14 | 16 |
| B15 | 316 |
| B16 | > 500 |
| B17 | 8 |
| B18 | 15 |

Target: HA of H5N1 A/Vietnam/1194/04 (influenza A virus)
Experiment: cell-based or functional assay

| Binder | VNA titer [nM] |
| --- | --- |
| B32 | > 1000 |
| B1 | 638 |
| B2 | 615 |
| B3 | > 1000 |
| B4 | 444 |
| B5 | 111 |

Target: hemagglutinin (HA) of influenza A/New York/107/03 (PR8) (influenza A virus A/New York/107/03 (PR8))
Experiment: cell-based or functional assay

| Binder | VNA IC50 [nM] |
| --- | --- |
| B20 | 16 |
| B21 | 5 |
| B22 | 8 |
| B23 | 26 |
| B24 | 6 |
| B25 | 13 |
| B26 | 6 |
| B27 | 20 |
| B28 | 16 |
| B29 | 6 |
| B33 | > 1000 |
| B34 | 858 |
| B35 | > 1000 |
| B30 | 16 |
| B36 | > 1000 |
| B31 | 26 |
| B37 | > 1000 |

Target: HA of H7N3 A/NIBRG/60 (A/mallard/NL/12/00) (influenza A virus)
Experiment: cell-based or functional assay

| Binder | VNA titer [nM] |
| --- | --- |
| B32 | 510 |
| B1 | > 1000 |
| B2 | > 1000 |
| B3 | > 1000 |
| B4 | > 1000 |
| B5 | > 1000 |
| B19 | > 1000 |
